Data from publication PMC12514197, “LARGE1 processively polymerizes length-controlled matriglycan on prodystroglycan” (Nature Communications, 2025).

Legend:
[1] = molecular target: T1, prodystroglycan (DAG1_(28-340)) (Homo sapiens, UniProt Q14118 28-340, R311A | R312A); experiment: MST
T1 sequence: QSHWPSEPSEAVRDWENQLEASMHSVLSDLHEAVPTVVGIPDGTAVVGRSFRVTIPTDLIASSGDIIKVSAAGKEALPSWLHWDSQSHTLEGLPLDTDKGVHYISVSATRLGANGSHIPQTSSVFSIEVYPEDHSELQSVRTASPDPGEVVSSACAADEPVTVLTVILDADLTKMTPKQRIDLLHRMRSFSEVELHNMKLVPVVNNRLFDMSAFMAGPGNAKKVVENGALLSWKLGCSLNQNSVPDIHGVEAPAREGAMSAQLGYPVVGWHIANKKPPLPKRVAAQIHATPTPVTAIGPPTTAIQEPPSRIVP

[2] = molecular target: the molecule itself; experiment: SEC-MALS; Superdex 200 Increase 10/300 GL, 20 mM HEPES pH 7.4, 150 mM NaCl, samples 4-8 mg/mL, on line with SAXS

B1: LARGE1dTM (enzyme)
chain: FEDGKPVSLSPLESQAHSPRYTASSQRERESLEVRMREVEEENRALRRQLSLAQGRAPSHRRGNHSKTYSMEEGTGDSENLRAGIVAGNSSECGQQPVVEKCETIHVAIVCAGYNASRDVVTLVKSVLFHRRNPLHFHLIADSIAEQILATLFQTWMVPAVRVDFYNADELKSEVSWIPNKHYSGIYGLMKLVLTKTLPANLERVIVLDTDITFATDIAELWAVFHKFKGQQVLGLVENQSDWYLGNLWKNHRPWPALGRGYNTGVILLLLDKLRKMKWEQMWRLTAERELMGMLSTSLADQDIFNAVIKQNPFLVYQLPCFWNVQLSDHTRSEQCYRDVSDLKVIHWNSPKKLRVKNKHVEFFRNLYLTFLEYDGNLLRRELFGCPSEADVNSENLQKQLSELDEDDLCYEFRRERFTVHRTHLYFLHYEYEPAADSTDVTLVAQLSMDRLQMLEAICKHWEGPISLALYLSDAEAQQFLRYAQGSEVLMSRHNVGYHIVYKEGQFYPVNLLRNVAMKHISTPYMFLSDIDFLPMYGLYEYLRKSVIQLDLANTKKAMIVPAFETLRYRLSFPKSKAELLSMLDMGTLFTFRYHVWTKGHAPTNFAKWRTATTPYRVEWEADFEPYVVVRRDCPEYDRRFVGFGWNKVAHIMELDVQEYEFIVLPNAYMIHMPHAPSFDITKFRSNKQYRICLKTLKEEFQQDMSRRYGFAALKYLTAENNS
modifications: N-glycans; NHS-red label in the microscale thermophoresis experiments
notes: LARGE1 lacking the transmembrane domain; soluble secreted construct; Homodimer by cryo-EM and SEC-MALS; also called Like-acetylglucosaminyltransferase-1; apo-LARGE1dTM; source: HEK293-F, stably transfected, secreted, purified (TALON resin)
Kd [1]: ~180 nM
stoichiometry N [2]: 2
